# Reference: IntAct's records for PubMed 10097141
# B1: Polycystin-2 (Homo sapiens), Q13563 (parent)
# chain: MVNSSRVQPQQPGDAKRPPAPRAPDPGRLMAGCAAVGASLAAPGGLCEQRGLEIEMQRIRQAAARDPPAGAAASPSPPLSSCSRQAWSRDNPGFEAEEEEEEVEGEEGGMVVEMDVEWRPGSRRSAASSAVSSVGARSRGLGGYHGAGHPSGRRRRREDQGPPCPSPVGGGDPLHRHLPLEGQPPRVAWAERLVRGLRGLWGTRLMEESSTNREKYLKSVLRELVTYLLFLIVLCILTYGMMSSNVYYYTRMMSQLFLDTPVSKTEKTNFKTLSSMEDFWKFTEGSLLDGLYWKMQPSNQTEADNRSFIFYENLLLGVPRIRQLRVRNGSCSIPQDLRDEIKECYDVYSVSSEDRAPFGPRNGTAWIYTSEKDLNGSSHWGIIATYSGAGYYLDLSRTREETAAQVASLKKNVWLDRGTRATFIDFSVYNANINLFCVVRLLVEFPATGGVIPSWQFQPLKLIRYVTTFDFFLAACEIIFCFFIFYYVVEEILEIRIHKLHYFRSFWNCLDVVIVVLSVVAIGINIYRTSNVEVLLQFLEDQNTFPNFEHLAYWQIQFNNIAAVTVFFVWIKLFKFINFNRTMSQLSTTMSRCAKDLFGFAIMFFIIFLAYAQLAYLVFGTQVDDFSTFQECIFTQFRIILGDINFAEIEEANRVLGPIYFTTFVFFMFFILLNMFLAIINDTYSEVKSDLAQQKAEMELSDLIRKGYHKALVKLKLKKNTVDDISESLRQGGGKLNFDELRQDLKGKGHTDAEIEAIFTKYDQDGDQELTEHEHQQMRDDLEKEREDLDLDHSSLPRPMSSRSFPRSLDDSEEDDDEDSGHSSRRRGSISSGVSYEEFQVLVRRVDRMEHSIGSIVSKIDAVIVKLEIMERAKLKRREVLGRLLDGVAEDERLGRDSEIHREQMERLVREELERWESDDAASQISHGLGTPVGLNGQPRPRSSRPSSSQSTEGMEGAGGNGSSNVHV
# Variants of: B1
# Conditions: with TRPC1, P48995-2
# Chain of TRPC1, P48995-2 (P48995 other isoform, or with tags, fused parts or gaps): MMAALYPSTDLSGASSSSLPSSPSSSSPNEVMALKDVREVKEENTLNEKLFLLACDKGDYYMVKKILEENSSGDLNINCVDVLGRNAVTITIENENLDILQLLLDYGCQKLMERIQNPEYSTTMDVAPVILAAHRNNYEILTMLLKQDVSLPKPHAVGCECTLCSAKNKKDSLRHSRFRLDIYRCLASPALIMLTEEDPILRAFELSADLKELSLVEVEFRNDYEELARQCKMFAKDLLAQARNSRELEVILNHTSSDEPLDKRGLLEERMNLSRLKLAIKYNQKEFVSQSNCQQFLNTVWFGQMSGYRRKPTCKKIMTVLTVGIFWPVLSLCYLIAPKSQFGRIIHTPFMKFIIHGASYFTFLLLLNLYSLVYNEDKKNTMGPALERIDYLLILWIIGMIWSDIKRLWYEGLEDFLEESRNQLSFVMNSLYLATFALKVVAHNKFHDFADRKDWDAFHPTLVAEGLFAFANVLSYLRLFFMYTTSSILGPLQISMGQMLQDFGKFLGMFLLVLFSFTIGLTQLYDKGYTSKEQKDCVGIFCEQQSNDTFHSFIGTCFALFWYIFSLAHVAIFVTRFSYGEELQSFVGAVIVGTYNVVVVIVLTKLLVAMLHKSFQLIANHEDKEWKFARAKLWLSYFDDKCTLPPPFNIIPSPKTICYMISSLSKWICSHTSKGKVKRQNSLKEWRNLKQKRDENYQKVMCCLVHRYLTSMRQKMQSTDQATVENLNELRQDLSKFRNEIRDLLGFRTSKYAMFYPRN
row,Variant,effect of a mutation on the interaction
1,D886A,disrupting interaction

# Variants of: B1
# Conditions: with pkd1_human PKD1, P98161
# Chain of pkd1_human PKD1, P98161 (P98161 whole entry, looked up): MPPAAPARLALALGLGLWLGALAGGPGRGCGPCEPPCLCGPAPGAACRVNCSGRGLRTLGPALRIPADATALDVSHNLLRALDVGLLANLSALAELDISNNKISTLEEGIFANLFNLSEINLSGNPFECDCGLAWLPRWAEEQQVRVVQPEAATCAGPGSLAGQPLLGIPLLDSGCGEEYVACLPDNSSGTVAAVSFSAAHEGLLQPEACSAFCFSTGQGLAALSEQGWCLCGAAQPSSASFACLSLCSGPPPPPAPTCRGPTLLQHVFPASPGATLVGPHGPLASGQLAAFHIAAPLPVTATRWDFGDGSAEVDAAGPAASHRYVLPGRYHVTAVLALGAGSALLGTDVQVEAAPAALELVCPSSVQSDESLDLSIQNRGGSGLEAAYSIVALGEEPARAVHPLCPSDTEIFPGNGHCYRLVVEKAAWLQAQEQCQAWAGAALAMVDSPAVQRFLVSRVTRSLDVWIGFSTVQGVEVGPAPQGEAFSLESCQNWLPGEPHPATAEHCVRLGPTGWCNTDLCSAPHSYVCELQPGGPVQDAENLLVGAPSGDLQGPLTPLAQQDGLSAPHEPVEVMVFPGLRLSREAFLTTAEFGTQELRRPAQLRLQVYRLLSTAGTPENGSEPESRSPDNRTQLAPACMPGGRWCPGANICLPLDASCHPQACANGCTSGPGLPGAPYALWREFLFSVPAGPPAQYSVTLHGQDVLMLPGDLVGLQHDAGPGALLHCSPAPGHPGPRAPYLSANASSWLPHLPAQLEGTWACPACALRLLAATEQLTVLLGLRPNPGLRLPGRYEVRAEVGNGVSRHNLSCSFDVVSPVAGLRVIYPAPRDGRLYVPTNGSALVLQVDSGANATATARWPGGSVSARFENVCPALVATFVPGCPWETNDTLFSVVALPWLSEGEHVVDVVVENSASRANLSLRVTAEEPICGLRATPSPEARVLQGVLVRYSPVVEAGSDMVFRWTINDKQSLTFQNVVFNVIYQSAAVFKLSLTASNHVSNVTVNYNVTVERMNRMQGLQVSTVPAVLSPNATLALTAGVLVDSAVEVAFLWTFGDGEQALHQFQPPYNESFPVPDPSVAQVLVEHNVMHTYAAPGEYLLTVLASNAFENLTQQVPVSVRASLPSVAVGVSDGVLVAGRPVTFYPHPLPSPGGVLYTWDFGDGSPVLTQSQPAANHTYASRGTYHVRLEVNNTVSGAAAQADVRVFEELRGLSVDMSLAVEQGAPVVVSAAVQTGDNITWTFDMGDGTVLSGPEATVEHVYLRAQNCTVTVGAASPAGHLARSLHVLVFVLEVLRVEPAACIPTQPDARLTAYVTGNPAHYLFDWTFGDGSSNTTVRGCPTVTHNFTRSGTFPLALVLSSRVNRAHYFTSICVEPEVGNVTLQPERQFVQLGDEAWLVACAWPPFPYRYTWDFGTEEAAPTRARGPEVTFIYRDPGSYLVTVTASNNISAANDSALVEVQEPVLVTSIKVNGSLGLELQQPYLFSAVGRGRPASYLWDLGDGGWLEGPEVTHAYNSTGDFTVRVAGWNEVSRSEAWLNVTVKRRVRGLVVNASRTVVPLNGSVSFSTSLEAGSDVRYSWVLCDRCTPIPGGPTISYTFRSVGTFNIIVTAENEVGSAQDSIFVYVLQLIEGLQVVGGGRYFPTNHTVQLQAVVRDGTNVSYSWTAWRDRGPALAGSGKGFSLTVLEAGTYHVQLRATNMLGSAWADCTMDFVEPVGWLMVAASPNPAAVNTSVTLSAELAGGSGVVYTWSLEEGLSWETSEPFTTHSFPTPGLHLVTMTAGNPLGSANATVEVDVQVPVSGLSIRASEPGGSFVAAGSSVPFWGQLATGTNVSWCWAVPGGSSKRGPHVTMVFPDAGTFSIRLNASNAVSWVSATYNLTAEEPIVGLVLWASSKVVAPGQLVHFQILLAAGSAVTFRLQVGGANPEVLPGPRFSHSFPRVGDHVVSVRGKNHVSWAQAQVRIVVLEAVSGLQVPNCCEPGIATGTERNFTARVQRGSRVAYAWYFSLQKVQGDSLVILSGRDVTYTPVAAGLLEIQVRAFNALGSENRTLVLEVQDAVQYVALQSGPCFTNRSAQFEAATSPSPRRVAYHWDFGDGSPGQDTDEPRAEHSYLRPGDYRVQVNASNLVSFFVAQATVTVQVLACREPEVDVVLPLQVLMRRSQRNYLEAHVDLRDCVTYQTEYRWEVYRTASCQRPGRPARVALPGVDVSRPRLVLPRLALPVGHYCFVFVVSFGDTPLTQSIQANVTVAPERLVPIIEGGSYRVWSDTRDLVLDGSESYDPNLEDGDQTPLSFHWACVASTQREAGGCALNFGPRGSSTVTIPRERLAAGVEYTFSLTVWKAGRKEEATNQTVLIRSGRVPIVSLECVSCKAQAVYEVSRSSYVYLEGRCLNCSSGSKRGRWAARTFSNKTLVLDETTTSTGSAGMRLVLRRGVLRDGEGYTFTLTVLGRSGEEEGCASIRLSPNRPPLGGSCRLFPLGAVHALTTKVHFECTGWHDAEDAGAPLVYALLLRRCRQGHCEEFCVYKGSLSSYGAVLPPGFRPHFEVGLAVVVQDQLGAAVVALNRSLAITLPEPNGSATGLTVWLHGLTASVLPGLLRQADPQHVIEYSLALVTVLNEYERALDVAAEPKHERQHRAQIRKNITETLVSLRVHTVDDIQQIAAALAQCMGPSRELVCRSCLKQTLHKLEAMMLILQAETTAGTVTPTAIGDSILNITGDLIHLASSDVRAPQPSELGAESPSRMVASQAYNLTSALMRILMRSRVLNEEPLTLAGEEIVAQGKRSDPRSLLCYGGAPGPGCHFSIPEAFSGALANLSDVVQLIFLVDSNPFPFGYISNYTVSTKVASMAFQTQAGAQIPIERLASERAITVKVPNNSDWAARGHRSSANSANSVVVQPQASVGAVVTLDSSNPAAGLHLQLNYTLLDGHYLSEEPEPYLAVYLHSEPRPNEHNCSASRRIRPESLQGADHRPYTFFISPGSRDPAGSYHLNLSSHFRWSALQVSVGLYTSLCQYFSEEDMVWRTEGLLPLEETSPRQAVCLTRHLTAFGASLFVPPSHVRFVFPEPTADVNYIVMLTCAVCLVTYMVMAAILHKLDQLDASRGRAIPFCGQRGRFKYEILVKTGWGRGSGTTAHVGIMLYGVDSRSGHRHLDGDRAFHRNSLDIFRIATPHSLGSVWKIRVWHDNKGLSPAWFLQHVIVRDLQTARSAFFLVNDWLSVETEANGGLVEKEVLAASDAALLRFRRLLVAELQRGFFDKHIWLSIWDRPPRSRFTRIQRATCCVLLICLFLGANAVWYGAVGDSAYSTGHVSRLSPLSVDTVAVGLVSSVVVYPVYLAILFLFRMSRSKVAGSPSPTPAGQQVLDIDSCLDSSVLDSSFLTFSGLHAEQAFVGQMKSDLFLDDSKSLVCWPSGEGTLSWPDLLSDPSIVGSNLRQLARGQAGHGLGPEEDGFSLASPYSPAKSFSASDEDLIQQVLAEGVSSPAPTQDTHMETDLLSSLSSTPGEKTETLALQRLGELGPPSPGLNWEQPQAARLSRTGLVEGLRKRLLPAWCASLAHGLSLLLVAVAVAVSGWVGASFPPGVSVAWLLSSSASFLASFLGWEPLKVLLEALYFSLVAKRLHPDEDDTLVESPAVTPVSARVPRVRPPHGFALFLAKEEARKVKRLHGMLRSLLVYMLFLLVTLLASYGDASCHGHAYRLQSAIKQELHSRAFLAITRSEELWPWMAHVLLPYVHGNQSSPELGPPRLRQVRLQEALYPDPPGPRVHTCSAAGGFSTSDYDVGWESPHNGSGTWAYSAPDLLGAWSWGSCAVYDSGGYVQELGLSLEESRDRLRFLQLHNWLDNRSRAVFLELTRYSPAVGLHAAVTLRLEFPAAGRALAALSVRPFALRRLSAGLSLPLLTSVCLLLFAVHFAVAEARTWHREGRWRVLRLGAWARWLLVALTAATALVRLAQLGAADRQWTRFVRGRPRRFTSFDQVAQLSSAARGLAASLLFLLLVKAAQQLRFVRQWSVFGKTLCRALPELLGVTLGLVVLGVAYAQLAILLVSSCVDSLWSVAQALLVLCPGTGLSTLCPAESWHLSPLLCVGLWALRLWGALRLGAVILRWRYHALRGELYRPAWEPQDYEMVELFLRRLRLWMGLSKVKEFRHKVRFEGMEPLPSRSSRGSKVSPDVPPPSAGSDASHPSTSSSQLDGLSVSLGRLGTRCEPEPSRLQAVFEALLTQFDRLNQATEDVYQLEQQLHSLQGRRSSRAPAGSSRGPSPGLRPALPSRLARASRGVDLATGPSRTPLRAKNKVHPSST
row,Variant,effect of a mutation on the interaction
1,L884H,disrupting interaction
